Here are results for 4 molecules from publication PMC9355564, “A network of cytosolic (co)chaperones promotes the biogenesis of mitochondrial signal-anchored outer membrane proteins” (eLife, 2022).

Ends that are not written are not given here.

Sequences and labels used below:
B1: GST-Tom70(46-617) (domain or fragment, S. cerevisiae, UniProt P07213 46-617, looked up)
chain: KDEKKDTKDSQKETEGAKKSTAPSNPPIYPVSSNGEPDFSNKANFTAEEKDKYALALKDKGNQFFRNKKYDDAIKYYNWALELKEDPVFYSNLSACYVSVGDLKKVVEMSTKALELKPDYSKVLLRRASANEGLGKFADAMFDLSVLSLNGDFNDASIEPMLERNLNKQAMSKLKEKFGDIDTATATPTELSTQPAKERKDKQENLPSVTSMASFFGIFKPELTFANYDESNEADKELMNGLSNLYKRSPESYDKADESFTKAARLFEEQLDKNNEDEKLKEKLAISLEHTGIFKFLKNDPLGAHEDIKKAIELFPRVNSYIYMALIMADRNDSTEYYNYFDKALKLDSNNSSVYYHRGQMNFILQNYDQAGKDFDKAKELDPENIFPYIQLACLAYRENKFDDCETLFSEAKRKFPEAPEVPNFFAEILTDKNDFDKALKQYDLAIELENKLDGIYVGIAPLVGKATLLTRNPTVENFIEATNLLEKASKLDPRSEQAKIGLAQMKLQQEDIDEAITLFEESADLARTMEEKLQAITFAEAAKVQQRIRSDPVLAKKIQETLAKLREQGLM
notes: Tom70, cytosolic domain, residues 46-617; also called cytosolic domain of Tom70; source: expressed and purified as described earlier (Papić et al., 2013); not shown: GST, N-terminal, kept

For one experiment, the target named is T1, Ssa1-Mcr1(TMS) complex (S. cerevisiae, UniProt P10591 1-642; P36060 1-39, Tetramethylrhodamine (TAMRA), position not stated).
T1 construct: Ssa1, as m37; Mcr1 residues 1-39, as m36; also called substrate-chaperone complex; Ssa1/substrate complex; source: formed beforehand by adding 10 µM recombinant Ssa1 to 2 µM TAMRA-labeled Mcr1 peptide
T1 sequence (P10591 whole entry, the tested form may be a part, one chain of several): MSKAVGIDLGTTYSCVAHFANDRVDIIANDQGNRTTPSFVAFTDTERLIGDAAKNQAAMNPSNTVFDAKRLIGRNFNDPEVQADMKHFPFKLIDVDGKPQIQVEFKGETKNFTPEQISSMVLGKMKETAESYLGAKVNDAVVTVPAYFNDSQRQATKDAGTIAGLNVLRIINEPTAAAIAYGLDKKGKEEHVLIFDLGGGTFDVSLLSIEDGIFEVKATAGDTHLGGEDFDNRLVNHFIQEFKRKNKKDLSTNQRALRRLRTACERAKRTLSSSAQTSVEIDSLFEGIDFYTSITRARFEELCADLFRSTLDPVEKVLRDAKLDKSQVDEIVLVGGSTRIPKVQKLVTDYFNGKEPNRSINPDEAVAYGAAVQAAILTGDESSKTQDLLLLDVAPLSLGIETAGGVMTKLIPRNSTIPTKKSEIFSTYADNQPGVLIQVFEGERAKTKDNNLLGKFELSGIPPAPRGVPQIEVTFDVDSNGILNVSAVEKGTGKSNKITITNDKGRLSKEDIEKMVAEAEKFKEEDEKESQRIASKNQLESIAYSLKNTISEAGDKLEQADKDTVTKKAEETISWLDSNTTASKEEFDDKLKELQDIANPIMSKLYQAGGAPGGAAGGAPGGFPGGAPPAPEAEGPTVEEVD
The experiment is described as follows: fluorescence polarisation; fluorescence anisotropy, 2 µM TAMRA-labeled peptide, 30 °C; single additions of 10 µM Ssa1, 30 µM Sis1, 10 µM GST-Tom70, GST, BSA or 1 mM ATP alone or in the indicated order. Conditions: both partners purified.

The target of another experiment is T2, GST-Tom20(35-183) (S. cerevisiae, UniProt P35180 35-183).
T2 construct: also called cytosolic domain of Tom20; source: expressed and purified as described earlier (Papić et al., 2013); not shown: GST, N-terminal, kept
T2 sequence (looked up): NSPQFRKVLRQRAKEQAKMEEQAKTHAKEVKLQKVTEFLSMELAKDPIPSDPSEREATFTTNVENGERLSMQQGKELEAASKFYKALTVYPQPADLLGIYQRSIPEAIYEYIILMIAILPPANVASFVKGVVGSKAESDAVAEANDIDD
In words: pull-down; purified GST, GST-Tom20 or GST-Tom70 on glutathione sepharose beads blocked with 5% BSA, mixed with cleared in vitro translation reactions (yeast extract) of HA-tagged proteins; ATP added every 30 min; 20 mM Hepes, 100 mM NaCl, 1 mM MgCl2, pH 7.25; anti-HA blot. Conditions: one partner purified.

The experiment “GST-Tom70(46-617)” deals with B1. The experiment is described as follows: fluorescence polarisation; fluorescence anisotropy, 2 µM TAMRA-labeled peptide, 30 °C; single additions of 10 µM Ssa1, 30 µM Sis1, 10 µM GST-Tom70, GST, BSA or 1 mM ATP alone or in the indicated order. Conditions: both partners purified.
For the next experiment, the target named is T3, recombinant Ssa1 (S. cerevisiae, UniProt P10591 1-642).
T3 construct: Ssa1, yeast cytosolic Hsp70 chaperone; also called Hsp70 Ssa1; source: recombinantly expressed and purified
T3 sequence (P10591 whole entry): as the sequence (P10591 whole entry, the tested form may be a part, one chain of several) above
In words: fluorescence polarisation; fluorescence anisotropy titration, 2 µM TAMRA-labeled peptide with increasing concentrations of Ssa1 or Sis1, 30 °C; Kd from hyperbolic regression of the difference in anisotropy. Conditions: both partners purified.

A further experiment deals with T4, recombinant Sis1 (S. cerevisiae, UniProt P25294 1-352).
T4 construct: Sis1, yeast Hsp40 co-chaperone; also called Hsp40 co-chaperone Sis1; source: recombinantly expressed and purified
T4 sequence (looked up): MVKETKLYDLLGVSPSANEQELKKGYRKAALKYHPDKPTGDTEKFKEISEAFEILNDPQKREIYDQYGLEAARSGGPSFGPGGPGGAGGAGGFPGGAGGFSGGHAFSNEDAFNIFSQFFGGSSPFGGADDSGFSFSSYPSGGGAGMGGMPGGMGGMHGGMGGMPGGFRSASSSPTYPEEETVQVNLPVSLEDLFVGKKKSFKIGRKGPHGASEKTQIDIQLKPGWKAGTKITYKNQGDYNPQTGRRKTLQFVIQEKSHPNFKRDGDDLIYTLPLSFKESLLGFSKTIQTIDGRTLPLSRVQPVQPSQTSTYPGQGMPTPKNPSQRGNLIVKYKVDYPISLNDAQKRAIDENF
Described as above. Conditions: both partners purified.

B1: in the experiment with Ssa1-Mcr1(TMS) complex, the binding result is on record as “binds”.

B2: Mcr1-3HA (full length) (natural protein, S. cerevisiae, UniProt P36060 1-302, looked up)
chain: MFSRLSRSHSKALPIALGTVAIAAATAFYFANRNQHSFVFNESNKVFKGDDKWIDLPISKIEEESHDTRRFTFKLPTEDSEMGLVLASALFAKFVTPKGSNVVRPYTPVSDLSQKGHFQLVVKHYEGGKMTSHLFGLKPNDTVSFKGPIMKWKWQPNQFKSITLLGAGTGINPLYQLAHHIVENPNDKTKVNLLYGNKTPQDILLRKELDALKEKYPDKFNVTYFVDDKQDDQDFDGEISFISKDFIQEHVPGPKESTHLFVCGPPPFMNAYSGEKKSPKDQGELIGILNNLGYSKDQVFKF
notes: Mcr1, S. cerevisiae, signal-anchored mitochondrial outer membrane protein (Mcr1mom is its outer membrane isoform); also called Mcr1-FL; yk-Mcr1-3HA; source: in vitro translated in yeast extract; not shown: 3HA, C-terminal, kept
As to B2, in the experiment with GST-Tom20(35-183), the “fold binding to GST-Tom20 relative to GST-Tom70 (after normalising to GST)” value stood at 4 fold.

B3: TAMRA-labeled Mcr1 peptide, residues 1-39 (peptide, UniProt P36060 1-39, looked up)
peptide: MFSRLSRSHSKALPIALGTVAIAAATAFYFANRNQHSFV
modifications: also: TAMRA label, position not given here
notes: Mcr1, residues 1-39, contain the transmembrane segment; synthesis as in Jores et al., 2016; also called Mcr1(TMS); Mcr1-TMS peptide; source: synthetic peptide
Regarding B3, the binding result in the experiment with GST-Tom70(46-617) was “binds”. Further, the Kd was 3.27 µM in the experiment with recombinant Ssa1 and 25.8 µM with recombinant Sis1.

B4: TAMRA-labeled Tom70 peptide, residues 1-32 (peptide, UniProt P07213 1-32, looked up)
peptide: MKSFITRNKTAILATVAATGTAIGAYYYYNQL
modifications: also: TAMRA label, position not given here
notes: Tom70, residues 1-32, contain the transmembrane segment; synthesis as in Jores et al., 2016; also called Tom70(TMS); TMS-labelled peptide of Tom70; source: synthetic peptide
Regarding B4, the Kd in the experiment with recombinant Ssa1 was 2.42 µM; with recombinant Sis1, 18.3 µM.
